Assays:
[1] = target: biotinylated soluble leucine-zippered HLA-DO with αP10aA (bio-szDOv), beta chain with C-terminal Avitag (human) (UniProt P06340); assay: BLI
[2] = target: soluble HLA-DM (sDM), wild type (human, UniProt P28067;P28068); assay: enzyme inhibition kinetics

## sDM mutant αR98E,R194E (from UniProt P28067;P28068) (complex)
[1]
  binding affinity relative to the wild type (fold of the wild-type affinity): 0.0025

B1: soluble HLA-DO Ig-fusion protein (sDO-Fc) (Fc fusion)
chain 1: TKADHMGSYGPAFYQSYGASGQFTHEFDEEQLFSVDLKKSEAVWRLPEFGDFARFDPQGGLAGIAAIKAHLDILVERSNRSRAINVPPRVTVLPKSRVELGQPNILICIVDNIFPPVINITWLRNGQTVTEGVAQTSFYSQPDHLFRKFHYLPFVPSAEDVYDCQVEHWGLDAPLLRHWELQVPIPPPDAME
chain 2: TDSPEDFVIQAKADCYFTNGTEKVQFVVRFIFNLEEYVRFDSDVGMFVALTKLGQPDAEQWNSRLDLLERSRQAVDGVCRHNYRLGAPFTVGRKVQPEVTVYPERTPLLHQHNLLHCSVTGFYPGDIKIKWFLNGQEERAGVMSTGPIRNGDWTFQTVVMLEMTPELGHVYTCLVDHSSLLSPVSVEWRAQSEYSWRK
[2]
  Ki: 290 ± 20 nM
